Results taken from PMC8892257.

Target: Orai1-GFP (UniProt Q96D31)
Assay: FRET or BRET

Chain of UniProt Q96D31 (Q96D31 whole entry): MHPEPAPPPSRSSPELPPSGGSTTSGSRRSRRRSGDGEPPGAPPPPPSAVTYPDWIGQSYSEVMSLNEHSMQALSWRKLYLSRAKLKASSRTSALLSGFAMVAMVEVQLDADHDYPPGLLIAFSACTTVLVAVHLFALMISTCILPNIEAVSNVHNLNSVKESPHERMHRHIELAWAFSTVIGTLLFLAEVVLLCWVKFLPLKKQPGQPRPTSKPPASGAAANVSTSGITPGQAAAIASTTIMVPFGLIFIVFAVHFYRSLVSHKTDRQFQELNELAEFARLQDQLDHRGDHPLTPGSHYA

FRET efficiency (E-FRET): 0.26
Substance: STIM1A-mCherry (natural protein)
